Results reported in doi:10.1101/2021.03.03.433722.

Target: MvaT F36D/M44D (P. aeruginosa) (UniProt Q9HW86)
Experiment: ITC

gp4 K42E/K45E (natural protein) gave a Kd of 1360 nM and a stoichiometry N of 0.52.
For “gp4 of Pseudomonas phage LUZ24 (natural protein)”, the Kd was 170 nM and the stoichiometry N was 0.56.
